Assays:
[1] = system: Zymoseptoria tritici (SEPTTR) US-184; experiment: CytB dsRNA foliar application bioassay on wheat seedlings, SEPTTR US-184; assay type: in vivo; settings: compared to the non-treated control; strain not given
Procedure: RNAi (dsRNA) fungicidal solutions were prepared in TE buffer (pH 8.0), which were then mixed with 9 volumes of phosphate buffer (pH 7.5) containing 0.1% Triton X-100. The fungicidal solutions were applied to wheat seedlings using an automated booth sprayer to run-off. All sprayed plants were allowed to air dry prior to further handling.
The following served as controls: 1% silwet in phosphate buffer control, disease pressure control (untreated), and clean plant control (negative control).
(§1) These plants were inoculated with an aqueous spore suspension of Zymoseptoria tritici either prior to or after fungicidal treatments. After inoculation the plants were kept in 100% relative humidity to allow spores to germinate and infect the leaves. The plants were then transferred to a greenhouse until disease developed.

[2] = system: Zymoseptoria tritici (SEPTTR-184); experiment: Efficacy of target gene fragments (MgCytB dsRNA tiles) on wheat plants, SEPTTR-184; assay type: in vivo; set-up: Average of 2 trials SEPTTR-184 3DC / Average of 2 trials SEPTTR-184 1DP: scale not given here; settings: for ED50 SEPTTR-184 1DP / ED80 SEPTTR-184 1DP / Disease Control All Rates Average SEPTTR-184 1DP / Sum of Disease Control SEPTTR-184 1DP / Average of 2 trials SEPTTR-184 1DP: 1DP (preventative); for Disease Control All Rates Average SEPTTR-184 1DP / Disease Control All Rates Average SEPTTR-184 3DC: average of 200, 50, 12.5, 3.125 ppm; for Sum of Disease Control SEPTTR-184 1DP / Sum of Disease Control SEPTTR-184 3DC: sum over 200, 50, 12.5, 3.125 ppm; for ED50 SEPTTR-184 3DC / ED80 SEPTTR-184 3DC / Disease Control All Rates Average SEPTTR-184 3DC / Sum of Disease Control SEPTTR-184 3DC / Average of 2 trials SEPTTR-184 3DC: 3DC (curative)
Procedure: The 200 ppm rate for each treatment was prepared by adding the calculated volume of the corresponding dsRNA solution in TE buffer. Lower rates were prepared as 4-fold dilutions (50 ppm, 12.5 ppm, and 3.12 ppm). A non-target dsRNA control (YFP), a TE/phosphate buffer control, disease pressure control, and clean plant control were included.
as §1

Molecule | control of Septoria leaf blotch on wheat seedlings [1] | ED50 SEPTTR-184 1DP [2] [ppm] | ED80 SEPTTR-184 1DP [2] [ppm] | Disease Control All Rates Average SEPTTR-184 1DP [2] [%] | Sum of Disease Control SEPTTR-184 1DP [2] [%] | ED50 SEPTTR-184 3DC [2] [ppm] | ED80 SEPTTR-184 3DC [2] [ppm] | Disease Control All Rates Average SEPTTR-184 3DC [2] [%] | Sum of Disease Control SEPTTR-184 3DC [2] [%] | Average of 2 trials SEPTTR-184 1DP ([2]; 3.125 ppm) | Average of 2 trials SEPTTR-184 3DC ([2]; 3.125 ppm) | Average of 2 trials SEPTTR-184 1DP ([2]; 12.5 ppm) | Average of 2 trials SEPTTR-184 3DC ([2]; 12.5 ppm) | Average of 2 trials SEPTTR-184 1DP ([2]; 50 ppm) | Average of 2 trials SEPTTR-184 3DC ([2]; 50 ppm) | Average of 2 trials SEPTTR-184 1DP ([2]; 200 ppm) | Average of 2 trials SEPTTR-184 3DC ([2]; 200 ppm) | level of control, ranking among fragments ([2]; in vivo)
MgCytB-T1: 267 bp dsRNA of Zymoseptoria CytB region 1, location 364-630 (SEQ ID NO:4) (nucleic acid, listed as Zymoseptoria tritici, complementary strand of dsRNA) GTTCTGATGATGGCAACCGCATTCTTAGGGTATGTATTACCTTATGGTCAAATGTCTTTATGAGGAGCAACAGTTATAACTAACTTATTGAGTGCAATACCTTGAGTTGGACAAGACATAGTTGAATTCGTATGAGGTGGATTTTCTGTTAACAATGCAACATTGAACAGATTCTTTGCTCTACATTTCGTTTTACCGTTTGTGTTAGCTGCATTAGTTTTAATGCATCTAATAGCTTTACACGATACAGCGGGTTCAGGAAATCCT | observed to control Septoria leaf blotch | <3.125 | 200 | 66 | 263 | <3.125 | 159 | 79 | 318 | 53 | 77 | 58 | 76 | 71 | 79 | 80 | 85 | –
MgCytB-T7: 221 bp dsRNA of Zymoseptoria CytB region T7, location 947-1167 (SEQ ID NO:10) (nucleic acid, listed as Zymoseptoria tritici, complementary strand of dsRNA) GATTACAGTTTAGACCTTTAAGCAAGATCACATTTTACATATTTGTTGCTAACTTCTTAGTATTAATGCAATTAGGTGCTAATCACGTTGAGTCACCATTTATAGAATTTGGGCAAATTAGTACAGTACTGTACTTTTCACATTTCTTAATCATAGTGCCTCTAGTAAGCTTAATCGAGAATACTTTAGTGGATATGCACTTAAACAACACAATAACGTAA | – | <3.125 | >200 | 69 | 275 | <3.125 | >200 | 74 | 297 | 60 | 76 | 69 | 72 | 71 | 73 | 75 | 76 | –
MgCytB-T5: 172 bp dsRNA of Zymoseptoria CytB region T5, location 173-344 (SEQ ID NO:8) (nucleic acid, listed as Zymoseptoria tritici, complementary strand of dsRNA) TATCTGAAGCATTTAACTCAGTTGAACACATAATGAGAGATGTAAACAATGGATGACTTATACGTTATCTTCACTCTAATACTGCTTCAGCTTTCTTCTTTTTAGTTTACCTGCACGTGGGTAGAGGGTTATACTACGGGTCATACAAAGCCCCTAGAACATTAACATGAAC | – | <3.125 | >200 | 71 | 284 | 4.605 | 200 | 66 | 265 | 68 | 47 | 68 | 66 | 73 | 72 | 76 | 80 | –
MgCytB-T3: 116 bp dsRNA of Zymoseptoria CytB region 3, location 279-394 (SEQ ID NO:6) (nucleic acid, listed as Zymoseptoria tritici, long dsRNA, chemistry not given here, further chemistry not given here) TTACCTGCACGTGGGTAGAGGGTTATACTACGGGTCATACAAAGCCCCTAGAACATTAACATGAACAATCGGTACTATAATACTAGTTCTGATGATGGCAACCGCATTCTTAGGGT | observed to control Septoria leaf blotch | <3.125 | >200 | 68 | 271 | <3.125 | <3.125 | 84 | 334 | 59 | 84 | 64 | 84 | 74 | 81 | 74 | 84 | best level of control
MgCytB-T4: 219 bp dsRNA of Zymoseptoria CytB region T4, location 1-219 (SEQ ID NO:7) (nucleic acid, listed as Zymoseptoria tritici, complementary strand of dsRNA) ATGAGGATTTGGAAGAGTCACCCTTTATTTAGTCTGGTTAATGGTTATCTTATCGATTCACCACAACCAAGTAATCTAAGCTATCTATGAAATTTCGGTTCATTACTGGGATTTTGTCTTGTAATACAAATCGTTACTGGTGTTACACTTGCTATGCATTATAACCCTAGCGTATCTGAAGCATTTAACTCAGTTGAACACATAATGAGAGATGTAAAC | – | <3.125 | >200 | 73 | 292 | <3.125 | 44 | 79 | 316 | 71 | 76 | 74 | 75 | 73 | 81 | 74 | 83 | –
MgCytB-T2: 203 bp dsRNA of Zymoseptoria CytB region 2, location 603-805 (SEQ ID NO:5) (nucleic acid, listed as Zymoseptoria tritici, complementary strand of dsRNA) ACACGATACAGCGGGTTCAGGAAATCCTTTAGGTGTATCAGGTAACTACGATAGATTACCATTCGCCCCTTACTTTATATTCAAAGATTTAATAACAATATTTTTATTCATTATAGTGTTATCAATATTTATTTTCTTTATGCCTAACGTTTTAGGTGACAGCGAGAATTATGTTATGGCTAACCCTATGCAAACTCCACCTG | observed to control Septoria leaf blotch | <3.125 | >200 | 71 | 285 | <3.125 | 27 | 82 | 329 | 67 | 77 | 71 | 77 | 71 | 85 | 77 | 90 | –
MgCytB-T6: 258 bp dsRNA of Zymoseptoria CytB region T6, location 775-1032 (SEQ ID NO:9) (nucleic acid, listed as Zymoseptoria tritici, complementary strand of dsRNA) GTTATGGCTAACCCTATGCAAACTCCACCTGCTATAGTGCCTGAATGATATTTATTACCTTTCTACGCTATACTAAGATCAATACCTAACAAACTATTAGGTGTGATCGCAATGTTTTCTGCTATATTGATTATAATGATAATGCCAATTACCGATTTAGGTAGAAGTAGAGGATTACAGTTTAGACCTTTAAGCAAGATCACATTTTACATATTTGTTGCTAACTTCTTAGTATTAATGCAATTAGGTGCTAATCAC | – | <3.125 | >200 | 73 | 293 | <3.125 | >200 | 60 | 239 | 72 | 53 | 77 | 63 | 72 | 64 | 72 | 59 | –

Reference: patent publication US10392620B2, “Cytochrome B (CYTB) nucleic acid molecules that control pathogens” (Dow AgroSciences LLC, priority 2016, dated 2019)
